This is an account of results in patent US20220017591A1 (AstraZeneca / MedImmune, published 2022).

The labels stand for the following.
T1: mouse RXFP1 (mouse, UniProt Q6R6I7 1-758)
T1 sequence (looked up): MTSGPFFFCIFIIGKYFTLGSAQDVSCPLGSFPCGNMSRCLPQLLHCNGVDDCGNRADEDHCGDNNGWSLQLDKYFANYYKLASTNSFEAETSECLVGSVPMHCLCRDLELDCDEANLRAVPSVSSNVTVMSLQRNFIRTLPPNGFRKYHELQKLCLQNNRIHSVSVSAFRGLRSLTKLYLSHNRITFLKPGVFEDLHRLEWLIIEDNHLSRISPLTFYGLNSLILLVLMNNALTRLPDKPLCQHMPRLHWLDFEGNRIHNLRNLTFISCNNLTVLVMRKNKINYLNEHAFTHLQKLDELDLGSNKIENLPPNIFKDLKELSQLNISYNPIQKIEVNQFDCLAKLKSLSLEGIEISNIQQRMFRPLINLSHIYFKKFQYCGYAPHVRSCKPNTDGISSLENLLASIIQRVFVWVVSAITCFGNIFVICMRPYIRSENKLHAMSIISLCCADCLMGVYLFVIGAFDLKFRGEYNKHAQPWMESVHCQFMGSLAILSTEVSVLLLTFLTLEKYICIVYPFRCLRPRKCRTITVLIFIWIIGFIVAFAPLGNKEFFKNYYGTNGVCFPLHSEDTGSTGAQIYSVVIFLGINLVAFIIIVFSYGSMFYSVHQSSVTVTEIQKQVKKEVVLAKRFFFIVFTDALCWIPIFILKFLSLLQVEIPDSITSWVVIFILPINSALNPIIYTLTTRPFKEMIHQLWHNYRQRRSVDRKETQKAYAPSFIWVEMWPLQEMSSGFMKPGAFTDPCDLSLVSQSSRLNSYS

T2: human RXFP1 (human, UniProt Q9HBX9 1-757)
T2 sequence (looked up): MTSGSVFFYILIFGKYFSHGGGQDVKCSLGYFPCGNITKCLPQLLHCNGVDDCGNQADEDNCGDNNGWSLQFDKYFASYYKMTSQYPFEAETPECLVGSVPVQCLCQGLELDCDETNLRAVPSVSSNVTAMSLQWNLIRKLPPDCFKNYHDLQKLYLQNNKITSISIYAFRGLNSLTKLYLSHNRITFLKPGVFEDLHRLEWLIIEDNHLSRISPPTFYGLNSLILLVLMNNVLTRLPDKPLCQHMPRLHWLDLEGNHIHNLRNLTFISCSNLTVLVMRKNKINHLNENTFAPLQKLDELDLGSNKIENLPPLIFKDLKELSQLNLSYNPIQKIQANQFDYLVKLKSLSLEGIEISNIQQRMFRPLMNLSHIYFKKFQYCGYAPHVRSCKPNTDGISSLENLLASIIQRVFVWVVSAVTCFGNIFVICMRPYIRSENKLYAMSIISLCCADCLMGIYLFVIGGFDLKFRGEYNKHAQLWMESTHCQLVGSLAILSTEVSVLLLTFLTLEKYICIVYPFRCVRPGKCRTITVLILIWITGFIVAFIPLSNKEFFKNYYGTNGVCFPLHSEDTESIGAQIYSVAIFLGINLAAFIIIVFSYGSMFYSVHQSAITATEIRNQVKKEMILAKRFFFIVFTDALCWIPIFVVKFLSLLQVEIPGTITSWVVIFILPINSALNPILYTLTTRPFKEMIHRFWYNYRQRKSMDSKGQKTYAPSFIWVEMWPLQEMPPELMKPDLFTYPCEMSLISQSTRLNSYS

B1: RELAX0086 (Fc fusion)
chain 1: DKTHTCPPCPAPEFEGGPSVFLFPPKPKDTLMISRTPEVTCVVVDVSHEDPEVKFNWYVDGVEVHNAKTKPREEQYNSTYRVVSVLTVLHQDWLNGKEYKCKVSNKALPASIEKTISKAKGQPREPQVYTLPPCREEMTKNQVSLWCLVKGFYPSDIAVEWESNGQPENNYKTTPPVLDSDGSFFLYSKLTVDKSRWQQGNVFSCSVMHEALHNHYTQKSLSLSPGGGGGSGGGGSGGGGGSQLYSALANKCCHVGCTKRSLARFC
chain 2: DKTHTCPPCPAPEFEGGPSVFLFPPKPKDTLMISRTPEVTCVVVDVSHEDPEVKFNWYVDGVEVHNAKTKPREEQYNSTYRVVSVLTVLHQDWLNGKEYKCKVSNKALPASIEKTISKAKGQPREPQVCTLPPSREEMTKNQVSLSCAVKGFYPSDIAVEWESNGQPENNYKTTPPVLDSDGSFFLVSKLTVDKSRWQQGNVFSCSVMHEALHNHYTQKSLSLSPGGGGGSGGGGSGGGGSGGGGGSSWMEEVIKLCGRELVRAQIAICGMSTWS
B2: RELAX0110 (Fc fusion)
chain 1: DKTHTCPPCPAPEFEGGPSVFLFPPKPKDTLMISRTPEVTCVVVDVSHEDPEVKFNWYVDGVEVHNAKTKPREEQYNSTYRVVSVLTVLHQDWLNGKEYKCKVSNKALPASIEKTISKAKGQPREPQVYTLPPCREEMTKNQVSLWCLVKGFYPSDIAVEWESNGQPENNYKTTPPVLDSDGSFFLYSKLTVDKSRWQQGNVFSCSVMHEALHNHYTQKSLSLSPGGGGGSGGGGGSQLYSALANKCCHVGCTKRSLARFC
chain 2: DKTHTCPPCPAPEFEGGPSVFLFPPKPKDTLMISRTPEVTCVVVDVSHEDPEVKFNWYVDGVEVHNAKTKPREEQYNSTYRVVSVLTVLHQDWLNGKEYKCKVSNKALPASIEKTISKAKGQPREPQVYTLPPCREEMTKNQVSLWCLVKGFYPSDIAVEWESNGQPENNYKTTPPVLDSDGSFFLYSKLTVDKSRWQQGNVFSCSVMHEALHNHYTQKSLSLSPGAAPAPAPAPAPAPAGSSWMEEVIKLCGRELVRAQIAICGMSTWS
B3: RELAX0111 (Fc fusion)
chain 1: DKTHTCPPCPAPEFEGGPSVFLFPPKPKDTLMISRTPEVTCVVVDVSHEDPEVKFNWYVDGVEVHNAKTKPREEQYNSTYRVVSVLTVLHQDWLNGKEYKCKVSNKALPASIEKTISKAKGQPREPQVYTLPPCREEMTKNQVSLWCLVKGFYPSDIAVEWESNGQPENNYKTTPPVLDSDGSFFLYSKLTVDKSRWQQGNVFSCSVMHEALHNHYTQKSLSLSPGGGGGGSQLYSALANKCCHVGCTKRSLARFC
chain 2: B2 chain 2
B4: RELAX0085 (Fc fusion)
chain 1: DKTHTCPPCPAPEFEGGPSVFLFPPKPKDTLMISRTPEVTCVVVDVSHEDPEVKFNWYVDGVEVHNAKTKPREEQYNSTYRVVSVLTVLHQDWLNGKEYKCKVSNKALPASIEKTISKAKGQPREPQVYTLPPCREEMTKNQVSLWCLVKGFYPSDIAVEWESNGQPENNYKTTPPVLDSDGSFFLYSKLTVDKSRWQQGNVFSCSVMHEALHNHYTQKSLSLSPGGGGGSGGGGSGGGGSGGGGGSQLYSALANKCCHVGCTKRSLARFC
chain 2: DKTHTCPPCPAPEFEGGPSVFLFPPKPKDTLMISRTPEVTCVVVDVSHEDPEVKFNWYVDGVEVHNAKTKPREEQYNSTYRVVSVLTVLHQDWLNGKEYKCKVSNKALPASIEKTISKAKGQPREPQVCTLPPSREEMTKNQVSLSCAVKGFYPSDIAVEWESNGQPENNYKTTPPVLDSDGSFFLVSKLTVDKSRWQQGNVFSCSVMHEALHNHYTQKSLSLSPGAPAPAPAPAPAPAPAPAPAGSSWMEEVIKLCGRELVRAQIAICGMSTWS
B5: RELAX0105 (Fc fusion)
chain 1: B1 chain 1
chain 2: B4 chain 2
B6: RELAX0107 (Fc fusion)
chain 1: B3 chain 1
chain 2: B4 chain 2
B7: RELAX0087 (Fc fusion)
chain 1: B4 chain 1
chain 2: DKTHTCPPCPAPEFEGGPSVFLFPPKPKDTLMISRTPEVTCVVVDVSHEDPEVKFNWYVDGVEVHNAKTKPREEQYNSTYRVVSVLTVLHQDWLNGKEYKCKVSNKALPASIEKTISKAKGQPREPQVCTLPPSREEMTKNQVSLSCAVKGFYPSDIAVEWESNGQPENNYKTTPPVLDSDGSFFLVSKLTVDKSRWQQGNVFSCSVMHEALHNHYTQKSLSLSPGGGGGSGGGGSGGGGGSSWMEEVIKLCGRELVRAQIAICGMSTWS
B8: RELAX0106 (Fc fusion)
chain 1: B2 chain 1
chain 2: B4 chain 2

In the first assay the target is T1, mouse RXFP1. The experiment in a line: cell-based or functional assay.
On to B1, for which the “EC50 mRXFP1 (M), cAMP assay” value came to 2.68e-11 M.
Take B2: the “EC50 mRXFP1 (M), cAMP assay” value was determined as 1.11e-09 M.
B3: the “EC50 mRXFP1 (M), cAMP assay” value was 1.24e-09 M.
Regarding B4, the “EC50 mRXFP1 (M), cAMP assay” value turned out to be 3.09e-11 M.
Same read-out and setting: next, B5: 1.49e-11 M; B6: 3.87e-11 M; B7: 3.48e-11 M.
In the case of B8, the “EC50 mRXFP1 (M), cAMP assay” value worked out at 1.98e-11 M.

The target of the next assay is human RXFP2 (human, UniProt Q8WXD0 1-754). The assay can be described thus: cell-based or functional assay.
Chain of human RXFP2 (Q8WXD0 whole entry): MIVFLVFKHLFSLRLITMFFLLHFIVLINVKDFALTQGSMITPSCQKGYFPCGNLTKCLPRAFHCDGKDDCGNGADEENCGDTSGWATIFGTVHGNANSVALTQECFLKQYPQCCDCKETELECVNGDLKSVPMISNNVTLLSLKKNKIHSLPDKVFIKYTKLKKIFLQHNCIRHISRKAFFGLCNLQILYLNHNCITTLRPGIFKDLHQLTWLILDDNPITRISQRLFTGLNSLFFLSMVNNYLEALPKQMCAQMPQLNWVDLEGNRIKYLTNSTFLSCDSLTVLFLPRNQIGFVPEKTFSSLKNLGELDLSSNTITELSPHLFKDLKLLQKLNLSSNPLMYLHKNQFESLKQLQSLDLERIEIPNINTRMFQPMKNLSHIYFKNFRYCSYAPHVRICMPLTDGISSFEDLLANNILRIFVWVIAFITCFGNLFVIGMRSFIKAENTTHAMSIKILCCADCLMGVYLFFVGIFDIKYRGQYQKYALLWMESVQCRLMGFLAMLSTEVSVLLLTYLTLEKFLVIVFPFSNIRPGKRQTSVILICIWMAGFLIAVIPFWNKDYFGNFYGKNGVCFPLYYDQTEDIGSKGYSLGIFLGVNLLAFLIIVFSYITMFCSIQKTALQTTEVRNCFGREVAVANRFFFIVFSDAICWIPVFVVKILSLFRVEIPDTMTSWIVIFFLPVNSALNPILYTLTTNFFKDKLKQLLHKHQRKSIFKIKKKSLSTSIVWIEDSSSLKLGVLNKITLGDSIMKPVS
As for B1, the “EC50 hRXFP2 (M), cAMP assay” value came to 4.88e-08 M.
For B2, the “EC50 hRXFP2 (M), cAMP assay” value was greater than 6.07e-08 M.
For B3, the “EC50 hRXFP2 (M), cAMP assay” value is greater than 6.06e-08 M.
On the same count and under the same terms, then B4, with 4.67e-08 M.
In the case of B5, the “EC50 hRXFP2 (M), cAMP assay” value worked out at 3.33e-08 M.
Consider B6, for which the “EC50 hRXFP2 (M), cAMP assay” value is 1.22e-07 M.
On to B7, for which the “EC50 hRXFP2 (M), cAMP assay” value was determined as 3.63e-08 M.
On the same count and under the same terms, next, B8: 4.94e-08 M.

A further assay addresses T2, human RXFP1. The experiment in a line: cell-based or functional assay.
Turning to B1, the “EC50 hRXFP1 (M), cAMP assay” value was determined as 4.49e-11 M.
On to B2, for which the “EC50 hRXFP1 (M), cAMP assay” value came out at 1.88e-09 M.
Regarding B3, the “EC50 hRXFP1 (M), cAMP assay” value worked out at 1.93e-09 M.
As for B4, the “EC50 hRXFP1 (M), cAMP assay” value came out at 6.37e-11 M.
As for B5, the “EC50 hRXFP1 (M), cAMP assay” value was 7.12e-11 M.
With B6, the “EC50 hRXFP1 (M), cAMP assay” value is 8.09e-11 M.
On the same count and under the same terms, then B7, with 4.89e-11 M.
With B8, the “EC50 hRXFP1 (M), cAMP assay” value stood at 6.96e-11 M.
